This is an account of results in ChEMBL document CHEMBL2073821, “Immunohistochemical and functional characterization of pH-dependent intestinal absorption of weak organic acids by the monocarboxylic acid transporter MCT1” (J Pharm Pharmacol, 1999).

Substrate in series [1]: O=C(O)c1ccccc1
In words: (§1) TP_TRANSPORTER: uptake in MCT1-expressing MDA-MB231 cells. Particulars: MDA-MB-231. In kind it is functional, cell-based.

Substrate in series [2]: C[C@H](O)C(=O)O
The description is as §1. In kind it is functional, cell-based. Conditions: MDA-MB-231.

B1: Monocarboxylate transporter 1 (Rattus norvegicus), P53987 (protein)
chain: MPPAIGGPVGYTPPDGGWGWAVVVGAFISIGFSYAFPKSITVFFKEIEIIFSATTSEVSWISSIMLAVMYAGGPISSILVNKYGSRPVMIAGGCLSGCGLIAASFCNTVQELYFCIGVIGGLGLAFNLNPALTMIGKYFYKKRPLANGLAMAGSPVFLSTLAPLNQAFFGIFGWRGSFLILGGLLLNCCVAGSLMRPIGPQQGKVEKLKSKESLQEAGKSDANTDLIGGSPKGEKLSVFQTVNKFLDLSLFTHRGFLLYLSGNVVMFFGLFTPLVFLSNYGKSKHFSSEKSAFLLSILAFVDMVARPSMGLAANTRWIRPRVQYFFAASVVANGVCHLLAPLSTTYVGFCIYAGVFGFAFGWLSSVLFETLMDLVGPQRFSSAVGLVTIVECCPVLLGPPLLGRLNDMYGDYKYTYWACGVILIIAGLYLFIGMGINYRLVAKEQKAEEKKRDGKEDETSTDVDEKPKKTMKETQSPAPLQNSSGDPAEEESPV
As to B1, the figures for the Km in series [1] and in series [2] were 3.05 mM and 2.28 mM, respectively.
